# Experiments:
# AP-1 = test: CAT assay with stromelysin promoter reporter P750TRCAT (AP-1 dependent) in JB6 P+ Cl 41 cells; assay type: cell-based, mouse; settings: 10 ng/ml, eight hours
# Text: The plasmid constructs used in the following examples were as follows: P750TRCAT is a CAT reporter construct containing 750 bp of the rat stromelysin promoter driving the heterogolous gene chloramphenicol acetyl-transferase (CAT). This construct contains an AP-1 binding sequence at position −70 (Matrisian, L. M. et al. (1991) Am. J. Medic. Sci., 302: 157-162, Kerr, L. D. et al. (1988) Science., 242: 1424-1427, McDonnell, S. E. et al. (1990) Mol. Cell. Biol. 105 4284-4293). The mTRE-CAT reporter is a site-directed mutant with 2 point mutations in the AP-1 site (Matrisian, L. M. et al. (1991) Am. J. Medic. Sci., 302: 157-162) and the mPEA3-CAT reporter is a site-directed mutant in which point mutations in each of the PEA3 sites at position −208 to −200 and −191 to −199 of the stromelysin promoter were introduced using a protocol provided with the site-directed mutagenesis kit of Amersham Corp. (Arlington Heights, Ill.) and an oligonucleotide having SEQ ID NO.:1 GCAAGAAGCATTTCTTGG.
# In brief, JB6 Cl 41 (P^+) cells transfected for 4-5 hours using a standard calcium phosphate transfection procedure (Sambrook, J. et al. (1989) “Molecular Cloning, A Laboratory Manual” Cold Spring Harbor Laboratory Press, Cold Spring Harbor, N.Y.) with 10 μg of one of three CAT reporter plasmid DNAs, P750TRCAT, mTRE-CAT or mPEA3-CAT and 10 μg of sheared genomic DNA isolated from Cl 41 cells were then changed to medium containing 2% fetal calf serum and twenty-four to forty-two hours later, were treated with either 0.1% of DMSO, 10 ng/ml of TPA or 10 ng/ml EGF for eight hours prior to preparation of total cell extracts. CAT enzyme activity was assayed using a diffusion-based CAT assay according to the protocol provided by the manufacturers (New England Nuclear, Del.). The results are expressed as the rate of accumulation of [^14C]-acetylated product relative to solvent controls (DMSO).
# In order to determine whether TPA-induced CAT activity in JB6 P^+ cells is capable of being abolished, TPA induced CAT activity was measured in the presence of the known AP-1 inhibitors retinoic acid (RA) and fluocinolone acetonide (FA). In brief, JB6 P^+ Cl 41 cells were transfected with 10 μg of P750TRCAT and 10 μg of sheared genomic DNA from Cl 41 cells as in Example 1. […] As before, the results are expressed as the rate of accumulation of ^14C-acetylated product relative to solvent controls. […]
# c-Jun = test: immunoprecipitation and densitometry of c-Jun protein in stable JB6 transfectants; assay type: cell-based, mouse; settings: 10 ng/ml, fifteen hours, TAM67 or Neo-only transfectants
# Method: Three TAM67 clonal transfectants (M4, M3, M6) and one neo-only clonal transfectant (N1) were treated for fifteen hours with either 10 ng/ml TPA (T), 10 ng/ml EGF (E), or 0.1% DMSO (D) prior to metabolic labelling for two hours with 0.2 mCi/ml ^35S -methionine (Amersham, Rockford, Ill.) (Sun, Y. et al. (1993) Mol. Carcinogenesis, 8: 49-57). Cellular lysates were then collected and immunoprecipitations using polyclonal rabbit c-jun antibody (AB-1 antibody, Oncogene Science) were carried out overnite at 4° C. (Sun et al. (1993)). These immunoprecipitates were then analyzed by electrophoresis on 12.5% SDS polyacrylamide gels and these gels are shown in FIG. 4.
molecule,measurement,setting,value
"epidermal growth factor (protein, UniProt P01133 23-1207, looked up, Pro-epidermal growth factor, tumor promoter, peptide growth factor) Pro-epidermal growth factor: PQHWSCPEGTLAGNGNSTCVGPAPFLIFSHGNSIFRIDTEGTNYEQLVVDAGVSVIMDFHYNEKRIYWVDLERQLLQRVFLNGSRQERVCNIEKNVSGMAINWINEEVIWSNQQEGIITVTDMKGNNSHILLSALKYPANVAVDPVERFIFWSSEVAGSLYRADLDGVGVKALLETSEKITAVSLDVLDKRLFWIQYNREGSNSLICSCDYDGGSVHISKHPTQHNLFAMSLFGDRIFYSTWKMKTIWIANKHTGKDMVRINLHSSFVPLGELKVVHPLAQPKAEDDTWEPEQKLCKLRKGNCSSTVCGQDLQSHLCMCAEGYALSRDRKYCEDVNECAFWNHGCTLGCKNTPGSYYCTCPVGFVLLPDGKRCHQLVSCPRNVSECSHDCVLTSEGPLCFCPEGSVLERDGKTCSGCSSPDNGGCSQLCVPLSPVSWECDCFPGYDLQLDEKSCAASGPQPFLLFANSQDIRHMHFDGTDYGTLLSQQMGMVYALDHDPVENKIYFAHTALKWIERANMDGSQRERLIEEGVDVPEGLAVDWIGRRFYWTDRGKSLIGRSDLNGKRSKIITKENISQPRGIAVHPMAKRLFWTDTGINPRIESSSLQGLGRLVIASSDLIWPSGITIDFLTDKLYWCDAKQSVIEMANLDGSKRRRLTQNDVGHPFAVAVFEDYVWFSDWAMPSVMRVNKRTGKDRVRLQGSMLKPSSLVVVHPLAKPGADPCLYQNGGCEHICKKRLGTAWCSCREGFMKASDGKTCLALDGHQLLAGGEVDLKNQVTPLDILSKTRVSEDNITESQHMLVAEIMVSDQDDCAPVGCSMYARCISEGEDATCQCLKGFAGDGKLCSDIDECEMGVPVCPPASSKCINTEGGYVCRCSEGYQGDGIHCLDIDECQLGEHSCGENASCTNTEGGYTCMCAGRLSEPGLICPDSTPPPHLREDDHHYSVRNSDSECPLSHDGYCLHDGVCMYIEALDKYACNCVVGYIGERCQYRDLKWWELRHAGHGQQQKVIVVAVCVVVLVMLLLLSLWGAHYYRTQKLLSKNPKNPYEESSRDVRSRRPADTEDGMSSCPQPWFVVIKEHQDLKNGGQPVAGEDGQAADGSMQPTSWRQEPQLCGMGTEQGCWIPVSSDKGSCPQVMERSFHMPSYGTQTLEGGVEKPHSLLSANPLWQQRALDPPHQMELTQ",increase in AP-1 dependent CAT activity in neo-only transfectants,"AP-1; N1-N3 transfectants, P750TRCAT",three to four fold increases
same,"CAT activity relative to uninduced cells, P750TRCAT reporter",AP-1; P750TRCAT-transfected JB6 P+ Cl 41 cells,about 2 fold
same,"CAT activity relative to uninduced cells, mPEA3-CAT reporter",AP-1; mPEA3-CAT-transfected JB6 P+ Cl 41 cells (PEA3 sites mutated),about 2 fold
same,"inducibility of CAT activity, mTRE-CAT reporter",AP-1; mTRE-CAT-transfected cells (AP-1 binding site mutated),loss of inducibility
same,"c-Jun protein levels (43 kDa band, densitometric analysis)",c-Jun,no significant differences
